Article PMC3093129 (Biochemistry, 2011)

Target: the molecule itself
Experiment: AUC

B1: Liprin-β2 coiled-coil mutant C145S (complete coiled-coil construct, residues S100 through E315) (domain or fragment, human)
chain: MEKTRSAASNETYQERLARLEGDKESLILQVSVLTDQVEAQGEKIRDLEVSLEGHQVKLNAAEEMLQQELLSRTSLETQKLDLMTEVSELKLKLVGMEKEQREQEEKQRKAEELLQELRHLKIKVEELENERNQYEWKLKATKAEVAQLQEQVALKDAEIERLHSQLSRTAALHSESHTERDQEIQRLKMGMETLLLANEDKDRRIEELTGLLNQYRKVKE
  stoichiometry N: 2
